For assay [1], the target named is EBOV GP ectodomain residues 1-636 (GPec) (Zaire ebolavirus, strain  …, UniProt Q05320).
For assay [2], the target named is T1, thermolysin-cleaved EBOV GP on Jurkat-GP cells (cleaved GP) (Zaire ebolavirus, Makona (GP1 core …, strain)).
T1 chain 1: not shown
T1 chain 2: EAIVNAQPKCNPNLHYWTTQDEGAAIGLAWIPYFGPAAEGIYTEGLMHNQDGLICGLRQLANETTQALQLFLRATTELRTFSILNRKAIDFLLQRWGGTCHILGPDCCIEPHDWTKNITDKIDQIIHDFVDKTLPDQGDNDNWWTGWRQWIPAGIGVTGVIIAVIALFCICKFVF

B1: 5.6.c2961 (antibody, V domains shown)
VH: QVQLQESGPGLVKPSQTLSLTCTVSGDSISSGDYYWNWIRHHPGKGLEWLGYIYYSGSSDYNPSLKSRVTISVDTSKNHFSLKLSSVTAADTAIYYCARGSVSVLFGELDVWGQGTTVTVSS
VL: EIVLTQSPGTLSLSPGERATLSCRASQSVSNNFLAWYQQIRGQAPRLLIYGVSHRATGIPDRFSGSGSGTDFTLTISGLEPEDFALYYCQQYGRSPYTFGQGTRLEIK
With B1, the binding result in assay [1] and in assay [2] was “binds” each time.

B2: 5.6.c2998 (antibody, V domains shown)
VH: EVQLVESGGGVVQPGGSLRLSCAASGFTFDDYAMHWVRQAPGKGLEWVSIITGDGGSRNYADSVKGRFTISRDNNKNSLYLQMNSLRSEDTALYYCAKEGGPDSSTFYYYGMDVWGQGTTVTVSS
VL: DIQMTQSPSSVSASVGDRVTITCRASQDVSSWLAWYRQKPGRAPELLIYAASSLQSGVPSRFSGSGSGTDFTLTISSLQPEDFASYYCLQANSIPWTFGQGTKVEIK
For B2, the binding result in assay [1] and in assay [2] was “binds” in each case.

B3: 5.6.c2957 (antibody, V domains shown)
VH: QVRMVQSGAEVKKPGSSVKVSCKTSGGTFSTYSISWVRQAPGHGLEWMGRLIPMLGTPNYAQKFQGRLTITADRSTSTAYMELSSLSSEDTAVYYCARDLGTVLTPGDSWGQGTLVTVSS
VL: DIQMTQSPSSLSASVGDRVTITCRASQGISNYLAWFQQKPGEAPKSLIYAASSLQSGVPSKFSGSGSGTDFTLTISNLQPEDFATYYCQQYNSYPLTFGGGTKVEIK
Take B3: the binding result in assay [1] and in assay [2] was “binds” throughout.

B4: 5.6.c2954 (antibody, V domains shown)
VH: QAQLQESGPGLVKPSQTLSLTCTVSGGFSSSGGFFWSWIRQHPGKDLEWIGYIYSSGSPYYKPSLKSRVTISIDTSKNQFSLRLSSVTAADTAIYYCARGRGEMLTGYFDYWGQGKLVTVSS
VL: SYVLTQPPSVSVAPGKTASITCGGNNIGSKSVHWYQQRPGQAPVLVIYYDTDRPSGIPERFSGSNSGNTATLTISRVEAGDEADYYCQVWDSSSDPLLFGGGTKLTVL
For the molecule B4, the binding result in assay [1] and in assay [2] was “binds” each time.

B5: 5.6.c3021 (antibody, V domains shown)
VH: QLHLQESGPGLVKPSETLSLTCTVSGGSINHDYYWGWIRQPPGKGLEWIGTIYYSGNSYYNPSLKSRVTISVDTSKNQFSLKLSSVTAADTAVYYCARSEEDSVFGVLKGLAFDIWGQGTMVTVSS
VL: QSVLTQPPSVSGAPGQRVTISCTGSSSNIGAGYDVHWYQQPPGRAPKLLIYGNSNRASGVPDRFSGSKSGTSASLAITGLQAEDEADYYCQSYDSSLSGSVFGGGTKLTVL
In the case of B5, the binding result in assay [1] and in assay [2] was “binds” each time.

B6: 5.6.c3014 (antibody, V domains shown)
VH: QVQLVESGGGVVQPGRSLRLSCAASGFSFNSYGMHWVRQAPGKGLEWVAIIWYDGSDKYYADSVKGRFTISRDNSKNTLSLQMNSLRVEDSAVYYCARDPGHPSDLYYYYGMDVWGQGTTVTVSS
VL: DIQMTQSPSSVSASVGDRVTITCRASQDISYWLAWYQQKPGKAPKLLIYSASSLQSGVPSRFSGSGSGTDFTLTISSLQPEDFATYYCQQTHTFPITFGQGTRLEIK
As to B6, the binding result in assay [1] and in assay [2] was “binds” each time.

B7: 5.6.c3023 (antibody, V domains shown)
VH: QVQLVESGGGVVQPGRSLRLSCAASGFTFRTYGLHWVRQAPGKGLEWVAFISNDGSSKYNVDSVKGRFTISRDNPKNTLYLQMNSLRTEDTAVYYCAKDTISVAIYGHFDTWGQGTLVTVSS
VL: DVVMTQSPLSLPVTLGQPASISCRSSQSLVKSDGNTYLNWFQQRPGQSPRRLIYKVSTRDTGVPDRFSGSGSGTDFTLKISRVEAEDVAVYYCMQATHWPITFGGGTTVEIK
Turning to B7, the binding result in assay [1] and in assay [2] was “binds” in each case.

B8: 5.6.c3027 (antibody, V domains shown)
VH: QVQLVESGGGVVQPGRSLRLSCAASGFSFNNYGMHWVRQAPGKGLEWVAHIYFDGNYKFYIDSVKGRFTISRDNAKYTLYLQMNSLRVEDTAVYYCARDVRDGDDIFSGYHYGMDVWGQGTTVTVSS
VL: DIQMTQSPSSVSASVGDRVSITCRASQGFTNWLAWYQQKPGKAPKLVIYAASSLQSGVPSRFSGSGSGTNFTLTISSLQPEDFATYYCQQANSFPLTFGGGTKVDVK
Take B8: the binding result in assay [1] and in assay [2] was “binds” throughout.

B9: 5.6.c2972 (antibody, V domains shown)
VH: QVQLQESGPGLVKPSQTLSLTCAVSGGSIRSDDNYWSWIRQPPGKGLEWIGYIYHRGSTYYNPSLKNRVKISVDTSKNQFSLKLSSVTAADTAVYYCARDRIQVVPDGIVHYYYGMDVWGQGTTVTVSS
VL: QSVLTQPPSVSAAPGQKVTISCSGSSSNIGNNYVSWYQQLPGTAPKLLIYDNNKRPSGIPDRFSGSKSGTSATLGITGLQTGDEADYYCGTWDNNLSAWVFGGGTKLTVL
As for B9, the binding result in assay [1] and in assay [2] was “binds” in each case.

B10: 5.6.c2995 (antibody, V domains shown)
VH: QVQLVESGGGVVQPGRSLRLSCAASGFSFSTYGMYWVRQAPGKGLEWVGVIWYDGSEKYHADFVKGRFTMSRDNSKNTLYLQMNSLRVEDTAVYYCARDLRPSTNSWYGYYYNAMDVWGQGTTVTVSS
VL: QSVLTQPPSVSAAPGQRVTISCSGNSSNIGNNFVSWYQQLPGTAPKLLIYDNNSRPSGIPDRFSGSKSGTSATLGISGLQTGDEADYYCGSWDGSLSLWVFGGGTKLTVL
Consider B10, for which the binding result in assay [1] and in assay [2] was “binds” each time.

B11: 5.6.c2931 (antibody, V domains shown)
VH: QLQLQESGPGLVKPSQTLSLTCTVAGGSISRSSYYWGWIRQSPGKGLEWIGSIHYSGSTHYNSSLRSRVTISVDTSKNQFSLNLTSVTAADTAVYYCVRQSSVPYFDWSSPGQIDPWGQGTLVTVSS
VL: QLVLTQSPSASASLGASVKFTCTLSSGHRSYAIAWHQQQPEKGPRYLMKINSDGSHNKGDGIPDRFSGSSSGDERYLTISSLQSEDEADYYCQTWGTGIQVFGGGTKLTVL
For the molecule B11, the binding result in assay [1] and in assay [2] was “binds” each time.

B12: 5.6.c3013 (antibody, V domains shown)
VH: QVQLVQSGAEVKKPGASVKVSCKASGYTFTKYGISWMRQAPGQGLEWMGWISAYNGDTNYAQKLHGRLTMTTDTSTSTVYMELRSLRSDDTAIYYCARDLGELSSLKFYGMDVWGQGTTVTVSS
VL: DIQLTQSPSFLSASVGDRVTITCRASQGISSFLAWYQQKPGKAPKILVYGASTLQSGVPSRFSGSGSGTEFTLTISSLQPEDFATYYCQQVNTFPFTFGPGTQVDFK
Take B12: the binding result in assay [1] and in assay [2] was “binds” in each case.

B13: 5.6.c2913 (antibody, V domains shown)
VH: DVQLVESGGGLVQPGGSLRLSCVASGLTFSRDWMTWVRQAPGKGLEWVANIKQDGSEKYYLDSVKGRFTISRDNSNNALYLQMSSLRGEDTAVYYCARLHGGGFSDSDLFYYDFAMDVWGQGTTVTVSA
VL: EIVMTQSPATLSVSPGERATLSCRASQSVINNLAWYQQKPGQAPRLLIYGASTRATGIPARFSGSGSGTEFTLTISNLQSEDFAVYYCQQYNNWPPLTFGGGTQVEIK
Take B13: the binding result in assay [1] and in assay [2] was “binds” in each case.

These data come from publication PMC6908968 (Cell, 2019).
